This data set can be described thus: soluble on expression in E. coli; label from the status in PepcDB or PDB records.
As to “MSLLLTNHIGYERLGPKKAIIQTEQPHLSSYTAQLICATSEQTVATFAVEEQGKVANWHQGYFYLIDFSSFTDSGDYFLQVEDSRSSTFTVGEHILLNQTLSDVIHYFKSQRCGGVFDQQDRQVPVLNANQTADVHGGWYDASGDVSKYLSHLSYANYLNPQQTPMVVWNILKGLSLLEGSEDIAAFTRTRLIEEALFGADFLVRMQNEKGFFYMTVFDKWSKDTAQREICAYETQLGHKFDDYQAGFRQGGGVAIAALAAASRLGVHGEYDQQKYRNAAENGYWHLKEHNTQYLNDGEENIIDEYCALLASVELFKATKETRYLEESRLWAQRLVARQMSDEQIQHFWSANQDGSRPYFHAAEAGLPTIALCEYLAIEDDSVQTESVKCIVNRACEFEIKISNKVTNPFGYPRQYVKGVNESKRDAFFVAHNNESGYWWQGENARLGSLATMAYLAQPHIASQEIQQQLSVFAQDALNWIVGLNPYDMCMLDGHGRNNPDYLPQYGFFNAKGGVCNGITGGFEDEEDIAFNPPAQKDDMLQNWRWGEQWIPHGAWYLLAIMSQAQHISQLATSKNIKEGHHHHHH”, the “soluble on expression in E. coli” value is “soluble”.

Turning to “MGSDKIHHHHHHLDGDTQISIEALTSLSQITAEEWDACACPEDGRPLDPFTTYRFLDALEQSGSVGPGSGWQPRYLVARMDDQVIACAPMYAKGHSQGEYIFDHNWAHAYENAGGAYYPKLQIAAPFTPATGRRFLTRPGHDATGISALIQGAVQIAADNDLSSLHVTFCTEDEAIAGERIGLMRRWSQQFHWVNDGYADFDGFLASLSSRKRKNIRKERARAQAFGGEIVSLTGAQIKAEHWDAFWHFYQDTGARKWGTPYLTRAFFDIVHETLTDDMLLCLAIREGQPVAGALNFIGADTLYGRYWGCVEDHPCLHFELCYYQAIDYAIANGLSRVEAGAQGAHKLARGYLPVATHSLHWVRDAGFAEAIGRYLEAEREAVDEEIEVLTGYGPFKRA”, the “soluble on expression in E. coli” value is reported as “not soluble”.

Take “SLLPDIPEPLKNGTGAIDNNGVIYVGLGTAGTSWYKIDLKKQHKDWERIKSFPGGAREQSVSVFLNDELYVFGGVGKKNSESPLQVYSDVYKYSPVKNTWQKVDTISPVGLTGHTGVKLNETMVLITGGVNEHIFDKYFIDIAAAAADESEKNKVIYNYFNKPAKDYFFNKIVFIYNAKENTWKNAGELPGAGTAGSSSVMGNNFLMLINGELKPGLRTDVIYRAMWDNDKLTWLKNSQLPPSPGEQQQEGLAGAFSGYSHGVLLVGGGANFPGAKQNYTNGKFYSHEGINKKWRDEVYGLINGHWQYMGKMKQPLGYGVSVSYGDEVFLIGGENAKGKPVSSVTSFTMRDGNLLIK”: the “soluble on expression in E. coli” value is on record as “not soluble”.

On to “MGQKMKNAPVYFTIAQVRHNPVLRLGSYAPDIQDRMRKAGYPDFKKGIAMAFTLAPQLGDAPQTQPPVVEQVERLMFFSTDSTRGFIVEQNALSFHTTEYETFEALADEFMRGLAIVHECVTLAHSERIGLRYLDAVVPPGGETGLAEYLAPGVLGLSSRLPEDVTVSHSFSETHIQTAKCAVLARTIIQSGPLGFPMDLQPIGVKVADRFREINGVHAIVDTDASIEGRHPFNLELIKSQLQVLRDGVGIAFDATVTPIAVSAWNS”, for which the “soluble on expression in E. coli” value is given as “not soluble”.

Take “MVQEIEQWLRRHQVFTEPAYLGETAILLGQQFILSPYLVIYRIEAKEMIICEFRRLTPGQPRPQQLFHLLGLLRGIFVHHPQLTCLKMLIITDVLDEKKAMLRRKLLRILTVMGATFTQLDGDNWTVLSAEHLIQRRF”: the “soluble on expression in E. coli” value was “not soluble”.

Consider “MKLQKQLLEAVEHKQLRPLDVQFALTVAGDEHPAVTLAAALLSHDAGEGHVCLPLSRLENNEASHPLLATCVSEIGELQNWEECLLASQAVSRGDEPTPMILCGDRLYLNRMWCNERTVARFFNEVNHAIEVDEALLAQTLDKLFPVSDEINWQKVAAAVALTRRISVISGGPGTGKTTTVAKLLAALIQMADGERCRIRLAAPTGKAAARLTESLGKALRQLPLTDEQKKRIPEDASTLHRLLGAQPGSQRLRHHAGNPLHLDVLVVDEASMIDLPMMSRLIDALPDHARVIFLGDRDQLASVEAGAVLGDICAYANAGFTAERARQLSRLTGTHVPAGTGTEAASLRDSLCLLQKSYRFGSDSGIGQLAAAINRGDKTAVKTVFQQDFTDIEKRLLQSGEDYIAMLEEALAGYGRYLDLLQARAEPDLIIQAFNEYQLLCALREGPFGVAGLNERIEQFMQQKRKIHRHPHSRWYEGRPVMIARNDSALGLFNGDIGIALDRGQGTRVWFAMPDGNIKSVQPSRLPEHETTWAMTVHKSQGSEFDHAALILPSQRTPVVTRELVYTAVTRARRRLSLYADERILSAAIATRTERRSGLAALFSSRE”, for which the “soluble on expression in E. coli” value is recorded as “soluble”.

Take “MAHHHHHHMHLLHDFKNIYCLLPSDYKNFLQKIRTLPCSVNKNMQGEKEIYILKKYMKMLNYEFITFIHGPYVLHICDPFYKIYLEWENGWKLYPLYQQNAERHFRENKITHLRKEGFSEILICHDAFANCPSDEEKMNYLSSVLQRTKFSKCSSIICGPAAIAPPPVVSPDIYL”: the “soluble on expression in E. coli” value is recorded as “not soluble”.

As for “GRMENEESDVKPPDWPNPMNATSQFPQPQHFDSFGLRLPRDITELPEWSEGYPFYMAMGFPGYDLSADDIAGKFQFSRGMRRSYDAGFKLMVVEYAESTNNCQAAKQFGVLEKNVRDWRKVKPQLQNAHAMRRAFRGPKNGRFALVDQRVAEYVRYMQAKGDPITREAMQLKALEIAQEMNIPEKGFKASLGWCRRMMRRYDLSLRHKVPVPQHLPEDLTEKLVTYQRSVLALRRAHDYEVAQMGNADETPICLEVPSRVTVDNQGEKPVLVKTPGREKLKITAMLGVLADGRKLPPYIILRGTYIPPGKFPSGMEIRCHRYGWMTEDLMQDWLEVVWRRRTGAVPKQRGMLILNGFRGHATDSVKNSMESMNTDMVIIPGGLTSQLQVLDVVVYKPLNDSVRAQYSNWLLAGNLALSPTGNAKKPPLGLFLEWVMVAWNSISSESIVQGFKKCHISSNLEEEDDVLWEIESELPGGGEPPKDCDTESMAESN”, the “soluble on expression in E. coli” value is on record as “soluble”.

As for “MATIRIHDEANTTIENQEEVASFLDSQEVIYEQWDITRLPEHLSEKYDLTEEEKQQILDTFETEIKDISTRRGYKAQDVISLSDSNPKLDELLENFKREHHHTDDEVRFIVSGHGIFVIQGQDGTFFDVRLNPGDLISVPENIRHYFTLQEDRKVVAVRIFVTTEGWVPIYEKDSVNQLEHHHHHH”, the “soluble on expression in E. coli” value is “not soluble”.

With “MGSDKIHHHHHHKDSNKWKMTGDVSVQDDIMTLKGTDALAVLKNGKYKNFDLTLDLRTTPGGKGAVWFHTDPTLKKGYRIAINNDRADKVWWKMTGSLVSVRNLTKSFVKEDQWFKMDIRVAGQEIDVNINGEPVVEYIQPTAPYRTDANAYALLSEGTFAIESDGSGEIQIKNITVNVIDESTIDINAQLAEANDEQNDEIIKLHQSDFPVLDYHVHLKGGLTKEVAAKQSRKTGINYTIAPNCGIGFPITNDQQVMDYLNEMRSQPFILGMQAEGREWITTFSPETLKEFDYVFTDALTFKDNKGRRTRLWIPEETWIENEEQYMDMIVDRICSVLEEPVDIYVNPCFLPSPMDKRFDEFWTEARMNRFVEALAKSGKALEINELYNIPNKAIIMKAKAAGVKFTFGSNNVTPNVSDLSYSIRMMKECGLTAEDMYKPKVKI”, the “soluble on expression in E. coli” value is “not soluble”.

As for “MGSDKIHHHHHHMLETYALKNGAVFISDAHFLPKSPHLIHTLKELLSAKPPQVFFMGDIFHVLVGYLPLDKEQQKIIDLIHALSEISQVFYFEGNHDFSMRFVFNSKVMVFERQNQPVLFQYDNKRFLLAHGDLFITKAYEFYITQLTSTWARFFLTFLNLLSFKTLYPLFKKLIYQKPVRLWELEPKELQSFIEKRLKAYQNYIKDLNIGSIDGIIEGHFHLKSGAKIPLNTPIYCPLPSFYYEQSLFKVSSSVLEPSQNKDA”, the “soluble on expression in E. coli” value is reported as “not soluble”.

As for “MTVDSPILTDTLVVGGGQAGIAMSEHLTGQGVPHIVLERDRIAQRWRTGRWDSLVANGPAWHDRFPGLEFEGLDPDGFASKDAVADYLEAYARKFNAPIRTGVEVVRAERNGGRYGFTVETSAGTYEAQRIVVATGPFQRPVIPAIAPRDPALTQIHSADYRNPGQLPEGAVLVIGAGSSGVQIADELQRAGREVYLSVGPHDRPPRRYRGRDFCWWLGVLGLWDQETVQPGREHVTIAVSGTDGGRTIEFRALAHQGITLVGVTKSFRDGVVAFENDLAENVARGDANHFALLDAADAYIARNGLSLPDEPQARRVPPDPACMTEPILQLDLAAANVTSIIWATGYAAEYGWLNVDAFDANGKPRHQRGVSSEPGVYFLGLPWLSRRGSAFLWGVWHDAKHIAGHIAMQRNYLSYPDFGQSQQLEHHHHHH”, the “soluble on expression in E. coli” value is “soluble”.

“MRRCPLCHSTQTHLLLQDKKRCFYICQTCWLTFADANSHLPPAAEKQRYGRSRIASKQRHLSQFILPLLTQIQQQQNGSLTGLNFGRVLDQTSLETIESAGHTFKQYDPFFAPDHETLKQEYDFICCYRVFEHFQYPIKEWSLLTRLLKPGGWLAISTPLLIDLEGFAKWHYKNNLTHVSFYQRQTFEYLASNSDFELLFAAKDLVLMQKTSLEHHHHHH”: the “soluble on expression in E. coli” value is on record as “soluble”.

For “MDADASTITPEELDFIRQRALRRFDSIVPTAGREGTEIASDIFKGRTLAIYTSGGDSQGMNSAVRSITRMAIYCGCKVYLIYEGYEGMIEGGDFIKEATWNTVSDIIQQGGTIIGSARSSEFRTREGRLKAATNLINRGIGRLVCIGGDGSLTGANTFRLEWTDLVQELVKNQRVTAAAAKKIPYIQIVGLVGSIDNDFCGTDMTIGTDSALQRIISSIDAVVATAQSHQRAFVIEVMGRHCGYLALVAALASEADFCFIPEWPAPENWRDVLCDKLSQMRSEGQRLNIIIVAEGAIDRDGKAITAEDVKTAVKEKLKYDTRVTILGHVQRGGAPSAFDRLLGCRMGAEAVFALMEMTEESEPCVISIDGNVMVRVPLLKCVERTQMVQKAMADKDWTTAVMLRGRSFQRNLETYKLLTKMRTVEKDNLSEGHKFNVAVINVGAPAGGMNAAVRSYVRMALYHQCTVYGIEDSFEGLANGSFKQFKWSDVTNWAMNGGSFLGTQKSLPTEKTMPQLAAQLKKHNIQALLLVGGFEAYHSTIILAENREKYPEFCIPMCVIPCTISNNVPGTMVSLGSDTAINEICQMIDKIKQSATGTKRRVFIVETMGGYCGYLATLSALSSGADNAYIFEEPFTVQDLSDDVDVILSKMEVGAKRYLVVRNEWADKNLTTDFVQNLFDSEGKKNFTTRVNVLGHVQQGGSPTPFDRNMGTKLAARALEFLLIQLKENLTADNKVIAKSAHTATLLGLKGRKVVFTPVQDLKKETDFEHRLPSEQWWMALRPLLRVLARHRSTVESSAILESVEEESADSHMF”, the “soluble on expression in E. coli” value is “not soluble”.

Take “MEFRKSPSPDGDRIELVAIYDHDERIDMNDLHRSLTGFRILTLRISATYDQDIERIAFLPTIDKLTFCKDLLNAYNFQRIIMQSYEGIKAIGSRRTRIKLNDLLAANISFPIFMNVILPDAQLNLFIKYLIAGSNHRLDGFLFAKTPNAADFNEAAIFKGVNYQPVGGREAYPEFRNIQFQLHPRTRVFYVTNNNGILATVYLDIGLRYRIDIFPAGLMSSFPLLRLPSNELTKVLRHMNPIAQLGFSLLSEKSKNRISLLRIFSDEVSISVCAYKRKEKLTLRLRNSLSSLEVHKCGPDLVIVLQNWSDCTKLDFRREMSLRHWIDHCMELATAKRIDELTLSSIKKKHKFGISLLSERLKNLICSLQVFTTDVEIILRRSIELKIVPLFLVIGQTGQIEISSFTHFFLDNFIWIRPQMSTRNWIDHCLELTNNHRLNKLIVEAGDNQEIDMDGFYRSLIGLHIKTLELKGTYSRSIQLFGSLSNVDTIVLDVELVQTTDYQRMVVLNHTKLVETRTNRVKFSLNDLLASNASFLQFTNLRIPDTQLNLFLKHWIAGSNQRQEGFSLTKEHDEQSYNQSVILKGIETRPAVRRSEHHKFDEIFTLPQYSRTLDITNCDGVEATVYFGKSWLFNLGPVTNLCCMLVWG”: the “soluble on expression in E. coli” value is “not soluble”.

The record behind these values is the DeepSol protein solubility set.
